Drawing on patent publication US6344321, “Nucleic acid ligands which bind to hepatocyte growth factor/scatter factor (HGF/SF) or its receptor c-met” (Gilead Sciences, Inc.), this text covers Kd for 44 molecules.

Where a chain is given by its changes, count along the chain named.

The labels stand for the following.
B1: 11-166 (ssRNA)
RNA: GGGAGGACGAUGCGGGUUUGAGUUCUGACACGUCUUGUCCCAUGCCAGACGACUCGCCCGA
modifications: 2'-F pyrimidines
B2: 11-223 (ssRNA)
RNA: GGGAGGACGAUGCGGUCAGUAUGGCUUCUAUAGCUCGUUCCUCGGCAGACGACUCGCCCGA
modifications: 2'-F pyrimidines
B3: 8-126 (ssRNA)
RNA: GGGAGGACGAUGCGGGUGACUCAAAAUGGUGAUCCUCGUUUCCGCCAGACGACUCGCCCGA
modifications: 2'-F pyrimidines
B4: 11-76 (ssRNA)
RNA: GGGAGGACGAUGCGGUCAGCGGCGCGAGCCUGUUUAUGUCUGCUGCAGACGACUCGCCCGA
modifications: 2'-F pyrimidines
B5: 8-3 (ssRNA)
RNA: GGGAGGACGAUGCGGAUCCCGCGACCAGGGCGUUUCUUCCUCGUCCCAGACGACUCGCCCGA
modifications: 2'-F pyrimidines
B6: 11-163 (ssRNA)
RNA: GGGAGGACGAUGCGGGCUUGAGUCUUUGAUCGUCUUAUCCCUCGUCAGACGACUCGCCCGA
modifications: 2'-F pyrimidines
B7: 11-104 (ssRNA)
RNA: GGGAGGACGAUGCGGGUUUGAGUGAUGUCGUCUUGUCCCGCCUGCCAGACGACUCGCCCGA
modifications: 2'-F pyrimidines
B8: 11-165 (ssRNA)
RNA: GGGAGGACGAUGCGGGUUGAUAGGAGUCAUCAUCGUCUUGUCCGCCAGACGACUCGCCCGA
modifications: 2'-F pyrimidines
B9: 8-119 (ssRNA)
RNA: GGGAGGACGAUGCGGGCCAUUCGAUCGAUUCUCCGCCGGAUCGUGCAGACGACUCGCCCGA
modifications: 2'-F pyrimidines
B10: 8-101 (ssRNA)
RNA: GGGAGGACGAUGCGGGUGACUCAAAAUGGUGAUCCUCGAUUUCCGCCAGACGACUCGCCCGA
modifications: 2'-F pyrimidines
B11: 11-222 (ssRNA)
RNA: GGGAGGACGAUGCGGACAUAAGUCUUCUAUAGCUCGUCCUUUGUGCAGACGACUCGCCCGA
modifications: 2'-F pyrimidines
B12: 8-103 (ssRNA)
RNA: GGGAGGACGAUGCGGGCCGAAAAUUCGUCGACAUCUCCCUGUCUGCAGACGACUCGCCCGA
modifications: 2'-F pyrimidines
B13: 8-165 (ssRNA)
RNA: GGGAGGACGAUGCGGCGAGAGCCUAUUUAUGUCAUCAUGCCUGUGCAGACGACUCGCCCGA
modifications: 2'-F pyrimidines
B14: 8-171 (ssRNA)
RNA: B13 RNA with A18G, A25U, C40U
modifications: 2'-F pyrimidines
B15: 8-114 (ssRNA)
RNA: B13 RNA with A18U, C40U
modifications: 2'-F pyrimidines
B16: 11-103 (ssRNA)
RNA: GGGAGGACGAUGCGGUGAUUACCUAUUAUGUCUCGCCCUCUCCAGACGACUCGCCCGA
modifications: 2'-F pyrimidines
B17: 11-151 (ssRNA)
RNA: GGGAGGACGAUGCGGUGAGUCAUAGUGUUGAUCGUCGUAUCCCGUCAGACGACUCGCCCGA
modifications: 2'-F pyrimidines
B18: 11-17 (ssRNA)
RNA: GGGAGGACGAUGCGGGUUAGAGCGUGACAGUCGUCUUAUCCCGGGUCACAGACGACUCGCCCGA
modifications: 2'-F pyrimidines
B19: 11-126 (ssRNA)
RNA: GGGAGGACGAUGCGGGUUUGGGUCUUGAUCUCGUCUUGUCCCGUGCAGACGACUCGCCCGA
modifications: 2'-F pyrimidines
B20: 8-112 (ssRNA)
RNA: GGGAGGACGAUGCGGUCCCGAAUUUAAGUGCGUUUCCUCCGCGUCCAGACGACUCGCCCGA
modifications: 2'-F pyrimidines
B21: 8-154 (ssRNA)
RNA: B20 RNA with G20A, A22G, U23A, A26C, U29G, C37U, G41U
modifications: 2'-F pyrimidines
B22: 8-123 (ssRNA)
RNA: B20 RNA with A22G, A26G, U29G, C37U, C40U, G41U
modifications: 2'-F pyrimidines
B23: 11-65 (ssRNA)
RNA: GGGAGGACGAUGCGGUGAUAACCUGUUUAUGCCAUCGUGCUGGGCCAGACGACUCGCCCGA
modifications: 2'-F pyrimidines
B24: 8-155 (ssRNA)
RNA: GGGAGGACGAUGCGGUGUGAACCUAUUUAUGCCAUCUCGAGUGCCCAGACGACUCGCCCGA
modifications: 2'-F pyrimidines
B25: 11-7 (ssRNA)
RNA: GGGAGGACGAUGCGGGUGGAGUCAAAUCGUCUUGUCCCUUGUCCUCAGACGACUCGCCCGA
modifications: 2'-F pyrimidines
B26: 8-125 (ssRNA)
RNA: GGGAGGACGAUGCGGUGUGAACCUGUUUAUGUCAUCUUUUGUCGUCAGACGACUCGCCCGA
modifications: 2'-F pyrimidines
B27: 8-122 (ssRNA)
RNA: GGGAGGACGAUGCGGCGGUGUGAACCUGUUUAUGUCCGCGUACCCCAGACGACUCGCCCGA
modifications: 2'-F pyrimidines
B28: 11-215 (ssRNA)
RNA: GGGAGGACGAUGCGGGUAGUGAGUUUUCAUUGUCUUGUCCCCGUGCAGACGACUCGCCCGA
modifications: 2'-F pyrimidines
B29: 11-59 (ssRNA)
RNA: GGGAGGACGAUGCGGCGUGAGCCUGUAUAUGUCAUUGUUCUCCGGCAGACGACUCGCCCGA
modifications: 2'-F pyrimidines
B30: 11-212 (ssRNA)
RNA: GGGAGGACGAUGCGGGUUUGAGUUAAACAUCGGUUUUCUCCUGCAGACGACUCGCCCGA
modifications: 2'-F pyrimidines
B31: 11-208 (ssRNA)
RNA: GGGAGGACGAUGCGGGUUUGAGUGACGAUCGUCUUGUCCCAUGUGCAGACGACUCGCCCGA
modifications: 2'-F pyrimidines
B32: 11-8 (ssRNA)
RNA: GGGAGGACGAUGCGGUCAGUAUGACUUUUAUAGCACGUUCGCCCCAGACGACUCGCCCGA
modifications: 2'-F pyrimidines
B33: 11-157 (ssRNA)
RNA: B32 RNA with U20A, U29C, U38C, C40U, G41U
modifications: 2'-F pyrimidines
B34: 11-9 (ssRNA)
RNA: GGGAGGACGAUGCGGCGUGAGCCUGUUUAUGACCUCGUCCAUGGCCAGACGACUCGCCCGA
modifications: 2'-F pyrimidines
B35: 11-158 (ssRNA)
RNA: B13 RNA with G19U, U32A, A34C, A37G, G39C, U42C
modifications: 2'-F pyrimidines
B36: 11-217 (ssRNA)
RNA: B34 RNA with G25U, U26C, U27C, U28A, C34G, A41U
modifications: 2'-F pyrimidines
B37: 8-104 (ssRNA)
RNA: GGGAGGACGAUGCGGGCGACUCAAUCUGAAUCGUCUUGUCCCGUGCAGACGACUCGCCCGA
modifications: 2'-F pyrimidines
B38: 11-153 (ssRNA)
RNA: GGGAGGACGAUGCGGACAGGUAGUCUUCUAUAGCACUUCCUCCCCCAGACGACUCGCCCGA
modifications: 2'-F pyrimidines
B39: 8-118 (ssRNA)
RNA: GGGAGGACGAUGCGGGGCGACUUUCCUCCAAUUCUCACCUCUGCACAGACGACUCGCCCGA
modifications: 2'-F pyrimidines
B40: 8-113 (ssRNA)
RNA: GGGAGGACGAUGCGGUGAAUUCCUCUGGCUGAAAAUGACUUGUGCCAGACGACUCGCCCGA
modifications: 2'-F pyrimidines
B41: 8-17 (ssRNA)
RNA: GGGAGGACGAUGCGGGCGGCUCGAUGUCGUCUUAUCCCUUUGCCCCAGACGACUCGCCCGA
modifications: 2'-F pyrimidines
B42: 8-158 (ssRNA)
RNA: B41 RNA with G16C, U35C
modifications: 2'-F pyrimidines
B43: 11-6 (ssRNA)
RNA: GGGAGGACGAUGCGGGACGCGUUGAUUCAUCGUCUUAUCCUGCUGCAGACGACUCGCCCGA
modifications: 2'-F pyrimidines
B44: 11-110 (ssRNA)
RNA: GGGAGGACGAUGCGGUGAUUACCUAUUUAUGUCAUGCUCCUCCCCCAGACGACUCGCCCGA
modifications: 2'-F pyrimidines

HGF (hepatocyte growth factor/scatter factor), sequence (P14210 32-494, chain 1 of 2): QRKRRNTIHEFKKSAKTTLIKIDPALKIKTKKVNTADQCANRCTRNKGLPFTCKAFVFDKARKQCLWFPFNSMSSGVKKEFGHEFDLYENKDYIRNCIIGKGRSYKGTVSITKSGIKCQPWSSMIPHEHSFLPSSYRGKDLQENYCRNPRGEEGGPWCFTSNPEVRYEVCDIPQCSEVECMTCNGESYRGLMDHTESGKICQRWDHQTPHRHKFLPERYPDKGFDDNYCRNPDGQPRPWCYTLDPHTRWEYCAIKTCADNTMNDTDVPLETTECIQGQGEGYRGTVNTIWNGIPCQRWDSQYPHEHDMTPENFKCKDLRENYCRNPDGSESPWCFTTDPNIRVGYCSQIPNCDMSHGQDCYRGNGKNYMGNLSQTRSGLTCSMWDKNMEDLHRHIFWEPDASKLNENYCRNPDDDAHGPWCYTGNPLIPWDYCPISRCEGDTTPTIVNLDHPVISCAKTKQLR
HGF (hepatocyte growth factor/scatter factor), sequence (P14210 495-728, chain 2 of 2): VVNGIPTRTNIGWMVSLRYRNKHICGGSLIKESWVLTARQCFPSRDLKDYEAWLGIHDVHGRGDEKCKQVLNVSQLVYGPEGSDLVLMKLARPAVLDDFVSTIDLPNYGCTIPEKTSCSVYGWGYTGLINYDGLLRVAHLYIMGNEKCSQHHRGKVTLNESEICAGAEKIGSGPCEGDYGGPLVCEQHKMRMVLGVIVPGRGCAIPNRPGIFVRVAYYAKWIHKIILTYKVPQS

The target of the data set is HGF (hepatocyte growth factor/scatter factor) (UniProt P14210;P14210 P14210:32-494,P14210:495-728). The data set is described as follows: filter; HBSMC, 37C. Conditions: tags: R&D Systems. On the procedure:
In binding reactions, RNA concentrations were kept as low as possible—between 1 and 20 pM—to ensure equilibrium in conditions of protein excess. Oligonucleotides were incubated for 15 minutes at 37° C. with varying amounts of the protein in 43 µl of the binding buffer. Thirty-two microliters of each binding mixture placed on pre-wet 0.45 µm nitrocellulose filters under suction. Each well was immediately washed with 0.5 ml binding buffer. The amount of radioactivity retained on the filters was quantitated by imaging. The radioactivity that bound to filters in the absence of protein was used for background correction. The percentage of input oligonucleotide retained on each filter spot was plotted against the corresponding log protein concentration. The nonlinear least square method was used to obtain the dissociation constant (K_d; reference Jellinek, Lynott et al. 1993, Proc. Natl. Acad. Sci. USA. 90:11227–31).
In general, Kd refers to the equilibrium constant for the complex coming apart. High values mean weaker binding, low ones tighter binding. Turning to B1, the Kd turned out to be 0.079 nM.

Consider B2, for which the equilibrium dissociation constant (Kd) was found to be 0.12 nM.

B3 yielded an equilibrium dissociation constant (Kd) of 0.099 nM.

For B4, the Kd is 0.076 nM.

Molecule B5 showed a dissociation constant (Kd) of 0.13 nM.

Molecule B6 yielded a Kd of 0.082 nM.

For the molecule B7, the Kd is 0.091 nM.

On to B8, for which the Kd is 0.073 nM.

In turn, B9 showed a dissociation constant Kd of 0.11 nM.

Molecule B10 gave a dissociation constant (Kd) of 0.095 nM.

Regarding B11, binding was characterised by a dissociation constant (Kd) of 0.077 nM.

B12 had a dissociation constant Kd of 0.12 nM.

B13: the dissociation constant Kd turned out to be 0.1 nM.

Molecule B14 gave a dissociation constant Kd of 0.12 nM.

Consider B15, for which the equilibrium dissociation constant (Kd) was determined as 0.071 nM.

B16 displayed a Kd of 0.2 nM.

B17 had a Kd of 0.17 nM.

Molecule B18 returned a Kd of 0.13 nM.

B19: the Kd was 0.17 nM.

The molecule B20 had an equilibrium dissociation constant (Kd) of 0.13 nM.

B21: the Kd came to 0.12 nM.

Take B22: the Kd was 0.21 nM.

B23: the dissociation constant Kd turned out to be 0.11 nM.

In turn, B24 had a dissociation constant Kd of 0.093 nM.

For B25, the dissociation constant Kd is 0.11 nM.

On to B26, for which the Kd stood at 0.075 nM.

B27: the Kd was 0.097 nM.

For B28, the Kd came out at 0.091 nM.

With B29, the Kd amounted to 0.11 nM.

B30 displayed a Kd of 0.075 nM.

B31 showed a Kd of 0.06 nM.

On to B32, for which the Kd amounted to 0.15 nM.

As for B33, binding was put at a Kd of 0.26 nM.

B34 yielded a dissociation constant (Kd) of 0.074 nM.

As to B35, the Kd worked out at 0.17 nM.

In the case of B36, binding was characterised by a dissociation constant (Kd) of 0.071 nM.

B37 showed a Kd of 0.05 nM.

In the case of B38, the Kd came to 0.19 nM.

B39 showed a Kd of 0.16 nM.

With B40, the affinity, expressed as Kd, was 0.083 nM.

For the molecule B41, binding was characterised by a dissociation constant (Kd) of 0.095 nM.

With B42, the affinity, expressed as Kd, was 0.31 nM.

In turn, B43 displayed a Kd of 0.24 nM.

On to B44, for which binding was put at a Kd of 0.086 nM.
